The test concerns the target T1, RANK-L (UniProt O14788 140-317, limits assumed).
T1 sequence (looked up): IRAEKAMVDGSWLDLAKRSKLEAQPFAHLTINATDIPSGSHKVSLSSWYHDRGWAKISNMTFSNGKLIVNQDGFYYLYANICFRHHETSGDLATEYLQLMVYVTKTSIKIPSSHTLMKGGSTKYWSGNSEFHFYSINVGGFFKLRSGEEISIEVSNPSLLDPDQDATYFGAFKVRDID
Description: polarization anisotropy at steady state, 1 ug/mL Alexa568 TNF with increasing concentrations of RANK-L, 1 hour at 37 C. Here is the method:
This assay necessitated a fluorescently labeled TNF trimer that at limiting concentrations could be used as a tracer to monitor exchange. We generated a TNF variant (R31C/C69V/C101A) and specifically labeled it with Alexa568 maleimide at the R31 position. Polarization anisotropy measures heterotrimer formation at steady-state. We mixed 1 ug/mL Alexa568 TNF either alone (open circles) or with increasing concentrations of RANK-L (open squares), PEG20k-A145R/Y87H TNF, PEG5k-A145R/Y87H, or A145R/Y87H in PBS/0.02% igepal for 1 hour at 37 C. These reactions were placed into the spectroscopic instrument-and the steady-state anisotropy was measured. […] (FIG. 8B) Addition of surfactant excipients catalyzes the exchange between TNF homotrimers. We mixed together 1 ug/mL Alexa568 TNF alone (open circles) or with 100 ug/mL PEG-5k A145R/I97T TNF (closed circles) in a 96-well assay format and began anisotropy measurements. After ˜2000 seconds the instrument was paused and 0.5% polysorbate-20 or polysorbate-80 were added and the measurement was resumed.

B1: Alexa568 TNF (TNF variant R31C/C69V/C101A labeled with Alexa568 maleimide) (ligand, human, UniProt P01375 77-233, looked up)
chain: VRSSSRTPSDKPVAHVVANPQAEGQLQWLNCRANALLANGVELRDNQLVVPSEGLYLIYSQVLFKGQGVPSTHVLLTHTISRIAVSYQTKVNLLSAIKSPAQRETPEGAEAKPWYEPIYLGGVFQLEKGDRLSAEINRPDYLDFAESGQVYFGIIAL
modifications: Alexa568 maleimide at the R31 position (Cys of R31C)
notes: extracellular domain; Fluorescent tracer homotrimer
On to B1, for which the binding result is on record as “no binding”.
